16 molecules from patent US20150361138A1 (INSTITUT NATIONAL DE LA RECHERCHE AGRONOMIQUE, published 2015) can be followed below.

Holding throughout (assay): cell-based or functional assay
The target in assay [1] is T1, human KISS1R receptor (human, UniProt Q969F8 1-398).
Assay [2] addresses T1, human KISS1R receptor. The source holds these as a separate data set.
Assay [3] deals with T1, human KISS1R receptor. This is another data set of the same source.

Like-named read-outs stand apart in the source and are kept apart here. *1 amine or outer side, *2 acyl side, *3 side chain or, on linkers, in order; H or OH if unused. Side-chain parts run from the residue outwards. [ ]: non-standard residue; d: D form. The star is where a group is joined. TTDS = 1,13-diamino-4,7,10-trioxatridecan-succinic acid spacer arm, O=C(CCC(=O)[*:2])NCCCOCCOCCOCCCN[*:1]; PEG5000 = COCH2CH2NH(CH2CH2O)nMe, about 5000 g/mol; γGlu = O=C(O)[C@H](CCC(=O)[*:2])N[*:1]; Arg(Me) = CNC(=N)NCCC[C@H](N)C(=O)O; Palmitoyl = CCCCCCCCCCCCCCCC(=O)*

T1 sequence (Q969F8 whole entry): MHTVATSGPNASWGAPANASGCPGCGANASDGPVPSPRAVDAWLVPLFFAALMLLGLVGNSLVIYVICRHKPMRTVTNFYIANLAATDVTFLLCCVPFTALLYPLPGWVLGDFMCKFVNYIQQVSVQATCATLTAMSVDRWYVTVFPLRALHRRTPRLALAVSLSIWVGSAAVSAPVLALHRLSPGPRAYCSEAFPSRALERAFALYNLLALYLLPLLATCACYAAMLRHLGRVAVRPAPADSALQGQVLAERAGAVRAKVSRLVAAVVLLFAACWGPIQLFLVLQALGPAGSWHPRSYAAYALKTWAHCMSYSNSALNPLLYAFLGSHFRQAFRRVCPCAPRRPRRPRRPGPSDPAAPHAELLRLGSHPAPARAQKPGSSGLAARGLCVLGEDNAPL

On to “peptide compound C6, Ac-DTyr-DTrp-Asn-Thr-Phe-GlyΨ[Tz]Leu-Arg(Me)-Trp-NH2”, for which, in the assay with human KISS1R receptor [1], the EC50 (nM), intracellular calcium mobilization of cells expressing human KISS1R was found to be 0.01 nM.
Turning to “peptide compound C7, Ac-DTyr-Hyp-Asn-Thr-Phe-GlyΨ[Tz]Leu-Arg(Me)-Trp-NH2”, the EC50 (nM), intracellular calcium mobilization of cells expressing human KISS1R in the assay with human KISS1R receptor [1] is 0.014 nM.
Consider Ac-YK([TTDS-γGlu-Palmitoyl])WNSFGLRY-NH2 (also: Gly7-Leu8 peptide bond replaced by 1,4-disubstituted 1,2,3-triazole), for which, in the assay with human KISS1R receptor [2], the “EC50 (nM), intracellular calcium mobilization of cells expressing human KISS1R” value amounted to 0.079 nM.
On to Ac-YNWNSFGLRY-NH2 [peptide compound Comp.3, Ac-Tyr-Asn-Trp-Asn-Ser-Phe-Gly-Leu-Arg-Tyr-NH2], for which the “EC50 (nM), intracellular calcium mobilization of cells expressing human KISS1R” value with human KISS1R receptor [3] worked out at 0.1 nM.
For Ac-YNK([γGlu-Palmitoyl])NSFGLRY-NH2 (also: Gly7-Leu8 peptide bond replaced by 1,4-disubstituted 1,2,3-triazole) [peptide compound C11, Ac-Tyr-Asn-Lys(γ-(N-hexadecanoyl-Glu-OH))-Asn-Ser-Phe-GlyΨ[Tz]Leu-Arg-Tyr-NH2], the “EC50 (nM), intracellular calcium mobilization of cells expressing human KISS1R” value with human KISS1R receptor [2] came out at 90 nM.
Take Ac-YK(PEG5000)WNSFGLRY-NH2 (also: Gly7-Leu8 peptide bond replaced by 1,4-disubstituted 1,2,3-triazole) [peptide compound C16, Ac-Tyr-Lys(PEG5000)-Trp-Asn-Ser-Phe-GlyΨ[Tz]Leu-Arg-Tyr-NH2]: the “EC50 (nM), intracellular calcium mobilization of cells expressing human KISS1R” value in the assay with human KISS1R receptor [2] came out at 4.17 nM.

B1: peptide compound C5, Ac-Tyr-Asn-Trp-Asn-Ser-PheΨ[Tz]GlyΨ[Tz]Leu-Arg-Tyr-NH2 (peptide)
peptide: Ac-YNWNSFGLRY-NH2
modifications: also: Phe6-Gly7 and Gly7-Leu8 peptide bonds replaced by 1,4-disubstituted 1,2,3-triazoles
With B1, the “EC50 (nM), intracellular calcium mobilization of cells expressing human KISS1R” value with human KISS1R receptor [3] worked out at 44 nM.
On the same count and under the same terms, for Ac-YNWNSFGL[Arg(Me)]Y-NH2 (also: Gly7-Leu8 peptide bond replaced by 1,4-disubstituted 1,2,3-triazole) [peptide compound C3, Ac-Tyr-Asn-Trp-Asn-Ser-Phe-GlyΨ[Tz]Leu-Arg(Me)-Tyr-NH2] the value was 0.014 nM.
Turning to {Palmitoyl-γGlu}-YNWNSFGLRY-NH2 (also: Gly7-Leu8 peptide bond replaced by 1,4-disubstituted 1,2,3-triazole) [peptide compound C9, γ-(N-hexadecanoyl-Glu-OH)-Tyr-Asn-Trp-Asn-Ser-Phe-GlyΨ[Tz]Leu-Arg-Tyr-NH2], in the assay with human KISS1R receptor [2], the “EC50 (nM), intracellular calcium mobilization of cells expressing human KISS1R” value was less than 0.001 nM.
On to H-YNWNSFGLRY-NH2 (also: Gly7-Leu8 peptide bond replaced by 1,4-disubstituted 1,2,3-triazole) [peptide compound C1, H-Tyr-Asn-Trp-Asn-Ser-Phe-GlyΨ[Tz]Leu-Arg-Tyr-NH2], for which the “EC50 (nM), intracellular calcium mobilization of cells expressing human KISS1R” value in the assay with human KISS1R receptor [3] came to 0.5 nM.
Same read-out and setting: the value for Ac-YNWNSFGLRY-NH2 (also: Gly7-Leu8 peptide bond replaced by 1,4-disubstituted 1,2,3-triazole) [peptide compound C2, Ac-Tyr-Asn-Trp-Asn-Ser-Phe-GlyΨ[Tz]Leu-Arg-Tyr-NH2] was 0.029 nM; that for Ac-YNK(Ac)NSFGL[Arg(Me)]Y-NH2 (also: Gly7-Leu8 peptide bond replaced by 1,4-disubstituted 1,2,3-triazole) [peptide compound C4, Ac-Tyr-Asn-Lys(Ac)-Asn-Ser-Phe-GlyΨ[Tz]Leu-Arg(Me)-Tyr-NH2] was 0.011 nM; that for H-YNWNSFGLRY-NH2 [comparative peptide compound Comp.1 (mKP10), H-Tyr-Asn-Trp-Asn-Ser-Phe-Gly-Leu-Arg-Tyr-NH2] was 2.9 nM.
Consider Ac-YK(2‑(succinamido)‑6‑(4-(4-iodophenyl)butanamido)hexanoate)WNSFGLRY-NH2 (also: Gly7-Leu8 peptide bond replaced by 1,4-disubstituted 1,2,3-triazole), for which the “EC50 (nM), intracellular calcium mobilization of cells expressing human KISS1R” value with human KISS1R receptor [2] came to 0.001 nM.
As to Ac-YK([γGlu-Palmitoyl])WNSFGLRY-NH2 (also: Gly7-Leu8 peptide bond replaced by 1,4-disubstituted 1,2,3-triazole) [peptide compound C8, Ac-Tyr-Lys(γ-(N-hexadecanoyl-Glu-OH))-Trp-Asn-Ser-Phe-GlyΨ[Tz]Leu-Arg-Tyr-NH2], in the assay with human KISS1R receptor [2], the “EC50 (nM), intracellular calcium mobilization of cells expressing human KISS1R” value amounted to 1.38 nM.
Still for that read-out and setting: for {Palmitoyl-γGlu}-YNWNSFGL[Arg(Me)]Y-NH2 (also: Gly7-Leu8 peptide bond replaced by 1,4-disubstituted 1,2,3-triazole) [peptide compound C12, γ-(N-hexadecanoyl-Glu-OH)Tyr-Asn-Trp-Asn-Ser-Phe-GlyΨ[Tz]Leu-Arg(Me)-Tyr-NH2] the value was less than 0.001 nM.
